Laboratory results taken from the supplement of paper PMC11316812.
± gives the standard deviation of the averaged measurements.

Key:
[1] = test system: MCF7; experiment: percentage of EdU-negative (G0-arrested) nuclei per well, 72 h; higher = more G0 arrest; conditions: reference: sequence is the full UniProt precursor, the tested protein was the secreted form or ectodomain
[2] = test system: hTERT-HMEC; experiment: as above; conditions: reference: sequence is the full UniProt precursor, the tested protein was the secreted form or ectodomain
[3] = protein concentration 0.0225 µM
[4] = protein concentration 0.007735 µM
[5] = protein concentration 0.07735 µM
[6] = protein concentration 0.0185 µM
[7] = protein concentration 0.03125 µM
[8] = protein concentration 0.3125 µM
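Further: secreted proteins added to cultured cells, EdU pulse at the end, nuclei found by Hoechst imaging, EdU status from nuclear versus surrounding ring intensity ratio, PBS as neutral control.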

Sequence	percentage of EdU-negative [1, 3] [%]	percentage of EdU-negative ([1]; protein concentration 0.225 µM) [%]	percentage of EdU-negative [2, 3] [%]	percentage of EdU-negative ([2]; protein concentration 0.225 µM) [%]	other results
MVSRMVSTMLSGLLFWLASGWTPAFAYSPRTPDRVSEADIQRLLHGVMEQLGIARPRVEYPAHQAMNLVGPQSIEGGAHEGLQHLGPFGNIPNIVAELTGDNIPKDFSEDQGYPDPPNPCPVGKTADDGCLENTPDTAEFSREFQLHQHLFDPEHDYPGLGKWNKKLLYEKMKGGERRKRRSVNPYLQGQRLDNVVAKKSVPHFSDEDKDPE	26.6 ± 1.8	25.7 ± 2.2	5.414 ± 0.019	5.28 ± 0.35	
MVSYWDTGVLLCALLSCLLLTGSSSGSKLKDPELSLKGTQHIMQAGQTLHLQCRGEAAHKWSLPEMVSKESERLSITKSACGRNGKQFCSTLTLNTAQANHTGFYSCKYLAVPTSKKKETESAIYIFISDTGRPFVEMYSEIPEIIHMTEGRELVIPCRVTSPNITVTLKKFPLDTLIPDGKRIIWDSRKGFIISNATYKEIGLLTCEATVNGHLYKTNYLTHRQTNTIIDVQISTPRPVKLLRGHTLVLNCTATTPLNTRVQMTWSYPDEKNKRASVRRRIDQSNSHANIFYSVLTIDKMQNKDKGLYTCRVRSGPSFKSVNTSVHIYDKAFITVKHRKQQVLETVAGKRSYRLSMKVKAFPSPEVVWLKDGLPATEKSARYLTRGYSLIIKDVTEEDAGNYTILLSIKQSNVFKNLTATLIVNVKPQIYEKAVSSFPDPALYPLGSRQILTCTAYGIPQPTIKWFWHPCNHNHSEARCDFCSNNEESFILDADSNMGNRIESITQRMAIIEGKNKMASTLVVADSRISGIYICIASNKVGTVGRNISFYITDVPNGFHVNLEKMPTEGEDLKLSCTVNKFLYRDVTWILLRTVNNRTMHYSISKQKMAITKEHSITLNLTIMNVSLQDSGTYACRARNVYTGEEILQKKEITIRDQEAPYLLRNLSDHTVAISSSTTLDCHANGVPEPQITWFKNNHKIQQEPGIILGPGSSTLFIERVTEEDEGVYHCKATNQKGSVESSAYLTVQGTSDKSNLELITLTCTCVAATLFWLLLTLFIRKMKRSSSEIKTDYLSIIMDPDEVPLDEQCERLPYDASKWEFARERLKLGKSLGRGAFGKVVQASAFGIKKSPTCRTVAVKMLKEGATASEYKALMTELKILTHIGHHLNVVNLLGACTKQGGPLMVIVEYCKYGNLSNYLKSKRDLFFLNKDAALHMEPKKEKMEPGLEQGKKPRLDSVTSSESFASSGFQEDKSLSDVEEEEDSDGFYKEPITMEDLISYSFQVARGMEFLSSRKCIHRDLAARNILLSENNVVKICDFGLARDIYKNPDYVRKGDTRLPLKWMAPESIFDKIYSTKSDVWSYGVLLWEIFSLGGSPYPGVQMDEDFCSRLREGMRMRAPEYSTPEIYQIMLDCWHRDPKERPRFAELVEKLGDLLQANVQQDGKDYIPINAILTGNSGFTYSTPAFSEDFFKESISAPKFNSGSSDDVRYVNAFKFMSLERIKTFEELLPNATSMFDDYQGDSSTLLASPMLKRFTWTDSKPKASLKIDLRVTSKSKESGLSDVSRPSFCHSSCGHVSEGKRRFTYDHAELERKIACCSPPPDYNSVVLYSTPPI					percentage of EdU-negative [1, 4]: 26.6 ± 3%; percentage of EdU-negative [1, 5]: 28.1 ± 1.6%; percentage of EdU-negative [2, 4]: 4.97 ± 0.54%; percentage of EdU-negative [2, 5]: 5.7 ± 0.039%
MVTLRKRTLKVLTFLVLFIFLTSFFLNYSHTMVATTWFPKQMVLELSENLKRLIKHRPCTCTHCIGQRKLSAWFDERFNQTMQPLLTAQNALLEDDTYRWWLRLQREKKPNNLNDTIKELFRVVPGNVDPMLEKRSVGCRRCAVVGNSGNLRESSYGPEIDSHDFVLRMNKAPTAGFEADVGTKTTHHLVYPESFRELGDNVSMILVPFKTIDLEWVVSAITTGTISHTYIPVPAKIRVKQDKILIYHPAFIKYVFDNWLQGHGRYPSTGILSVIFSMHVCDEVDLYGFGADSKGNWHHYWENNPSAGAFRKTGVHDADFESNVTATLASINKIRIFKGR	24.2 ± 3.6	28.079 ± 0.0073	5.6 ± 0.99	6.41 ± 0.73	
MVTSSFPISVAVFALITLQVGTQDSFIAAVYEHAVILPNKTETPVSQEDALNLMNENIDILETAIKQAAEQGARIIVTPEDALYGWKFTRETVFPYLEDIPDPQVNWIPCQDPHRFGHTPVQARLSCLAKDNSIYVLANLGDKKPCNSRDSTCPPNGYFQYNTNVVYNTEGKLVARYHKYHLYSEPQFNVPEKPELVTFNTAFGRFGIFTCFDIFFYDPGVTLVKDFHVDTILFPTAWMNVLPLLTAIEFHSAWAMGMGVNLLVANTHHVSLNMTGSGIYAPNGPKVYHYDMKTELGKLLLSEVDSHPLSSLAYPTAVNWNAYATTIKPFPVQKNTFRGFISRDGFNFTELFENAGNLTVCQKELCCHLSYRMLQKEENEVYVLGAFTGLHGRRRREYWQVCTLLKCKTTNLTTCGRPVETASTRFEMFSLSGTFGTEYVFPEVLLTEIHLSPGKFEVLKDGRLVNKNGSSGPILTVSLFGRWYTKDSLYSSCGTSNSAITYLLIFILLMIIALQNIVML					percentage of EdU-negative [1, 6]: 25.8 ± 0.6%; percentage of EdU-negative ([1]; protein concentration 0.185 µM): 28.11 ± 0.25%; percentage of EdU-negative [2, 6]: 3.63 ± 0.35%; percentage of EdU-negative ([2]; protein concentration 0.185 µM): 6.84 ± 0.58%
MVWKVAVFLSVALGIGAVPIDDPEDGGKHWVVIVAGSNGWYNYRHQADACHAYQIIHRNGIPDEQIVVMMYDDIAYSEDNPTPGIVINRPNGTDVYQGVPKDYTGEDVTPQNFLAVLRGDAEAVKGIGSGKVLKSGPQDHVFIYFTDHGSTGILVFPNEDLHVKDLNETIHYMYKHKMYRKMVFYIEACESGSMMNHLPDNINVYATTAANPRESSYACYYDEKRSTYLGDWYSVNWMEDSDVEDLTKETLHKQYHLVKSHTNTSHVMQYGNKTISTMKVMQFQGMKRKASSPVPLPPVTHLDLTPSPDVPLTIMKRKLMNTNDLEESRQLTEEIQRHLDARHLIEKSVRKIVSLLAASEAEVEQLLSERAPLTGHSCYPEALLHFRTHCFNWHSPTYEYALRHLYVLVNLCEKPYPLHRIKLSMDHVCLGHY					percentage of EdU-negative [1, 7]: 26.412 ± 0.015%; percentage of EdU-negative [1, 8]: 26 ± 1.2%; percentage of EdU-negative [2, 7]: 5.13 ± 0.28%; percentage of EdU-negative [2, 8]: 5.28 ± 0.11%
MVWKWMPLLLLLVCVATMCSAQDRTDLLNVCMDAKHHKTKPGPEDKLHDQCSPWKKNACCTASTSQELHKDTSRLYNFNWDHCGKMEPACKRHFIQDTCLYECSPNLGPWIQQVNQSWRKERFLDVPLCKEDCQRWWEDCHTSHTCKSNWHRGWDWTSGVNKCPAGALCRTFESYFPTPAALCEGLWSHSYKVSNYSRGSGRCIQMWFDSAQGNPNEEVARFYAAAMHVNAGEMLHGTGGLLLSLALMLQLWLLG	28.59 ± 0.11	27.6 ± 2.5	4.38 ± 0.49	5.92 ± 0.29	
